Reference: publication PMC5045929, “Norovirus-Specific Memory T Cell Responses in Adult Human Donors” (Frontiers in Microbiology, 2016)

Biological target: the molecule itself
Experiment: negative-stain electron microscopy; sucrose gradient-purified VLPs from baculovirus-infected Sf9 cells, negatively stained with 3% uranyl acetate (pH 4.5), 23,000x

B1: Norovirus GII.4 Sydney capsid protein VP1 (virus-like particles) (natural protein)
chain: MKMASSDANPSDGSAANLVPEVNNEVMALEPVVGAAIAAPVAGQQNVIDPWIRNNFVQAPGGEFTVSPRNAPGEILWSAPLGPDLNPYLSHLARMYNGYAGGFEVQVILAGNAFTAGKVIFAAVPPNFPTEGLSPSQVTMFPHIVVDVRQLEPVLIPLPDVRNNFYHYNQSNDPTIKLIAMLYTPLRANNAGDDVFTVSCRVLTRPSPDFDFIFLVPPTVESRTKPFSVPVLTVEEMTNSRFPIPLEKLFTGPSSAFVVQPQNGRCTTDGVLLGTTQLSPVNICTFRGDVTHITGSRNYTMNLASQNWNDYDPTEEIPAPLGTPDFVGKIQGVLTQTTRTDGSTRGHKATVYTGSADFAPKLGRVQFETDTDRDFEANQNTKFTPVGVIQDGGTTHRNEPQQWVLPSYSGRNTHNVHLAPAVAPTFPGEQLLFFRSTMPGCSGYPNMDLDCLLPQEWVQYFYQEAAPAQSDVALLRFVNPDTGRVLFECKLHKSGYVTVAHTGQHDLVIPPNGYFRFDSWVNQFYTLAPMGNGTGRRRAV
notes: The VP1 gene was cloned; also called GII.4 SYD VLP; GII.4-2012 (Sydney); source: Sf9 insect cells (baculovirus, pFastBac1), purified by two discontinuous sucrose gradient ultracentrifugations
Does B1 bind?
Result: binds
